Experimental data: IntAct's records for PubMed 29176668

Molecular target: ATP2A2, P16615-1
Sequence (P16615 whole entry): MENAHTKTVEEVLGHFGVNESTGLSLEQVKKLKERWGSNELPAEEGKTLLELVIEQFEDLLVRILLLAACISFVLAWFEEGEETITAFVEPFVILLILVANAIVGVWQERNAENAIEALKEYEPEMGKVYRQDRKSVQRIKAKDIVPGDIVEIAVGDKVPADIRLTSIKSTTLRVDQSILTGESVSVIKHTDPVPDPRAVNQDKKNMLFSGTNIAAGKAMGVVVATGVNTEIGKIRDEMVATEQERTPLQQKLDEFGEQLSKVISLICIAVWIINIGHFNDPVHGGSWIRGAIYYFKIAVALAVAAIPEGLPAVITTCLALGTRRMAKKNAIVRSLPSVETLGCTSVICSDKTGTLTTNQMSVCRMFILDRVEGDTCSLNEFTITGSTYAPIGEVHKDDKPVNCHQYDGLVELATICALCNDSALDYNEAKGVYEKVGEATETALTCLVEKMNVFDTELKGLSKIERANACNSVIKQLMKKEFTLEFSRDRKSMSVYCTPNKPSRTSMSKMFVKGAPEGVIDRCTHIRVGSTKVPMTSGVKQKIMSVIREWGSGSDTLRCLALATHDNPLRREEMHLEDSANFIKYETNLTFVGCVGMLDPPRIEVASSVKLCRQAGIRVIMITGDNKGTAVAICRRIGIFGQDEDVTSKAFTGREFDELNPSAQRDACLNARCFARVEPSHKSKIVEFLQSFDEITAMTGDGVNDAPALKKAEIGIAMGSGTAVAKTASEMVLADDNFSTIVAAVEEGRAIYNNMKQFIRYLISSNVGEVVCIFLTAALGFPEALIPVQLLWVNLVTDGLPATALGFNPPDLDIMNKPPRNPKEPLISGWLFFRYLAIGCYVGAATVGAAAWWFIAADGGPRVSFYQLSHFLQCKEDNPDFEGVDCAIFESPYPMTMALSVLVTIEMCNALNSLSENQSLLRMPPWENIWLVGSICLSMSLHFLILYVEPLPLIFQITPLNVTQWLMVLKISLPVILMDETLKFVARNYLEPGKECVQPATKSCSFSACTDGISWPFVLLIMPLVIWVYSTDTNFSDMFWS

| effect of a mutation on the interaction | Substance |
| --- | --- |
| decreasing interaction strength | Piezo-type mechanosensitive ion channel component 1 (Mus musculus), E2JF22 E2172A;K2173A;K2174A;Y2175A;P2176A;Q2177A;P2178A;K2179A;G2180A;Q2181A |
| decreasing interaction strength | Piezo-type mechanosensitive ion channel component 1 (Mus musculus), E2JF22 K2182A;K2183A;K2184A;K2185A |
